Reference: the DeepSol protein solubility set

Assay: soluble on expression in E. coli; label from the status in PepcDB or PDB records

Row | Sequence | soluble on expression in E. coli
1 | MPEITRRRALTAAAAVAATASAAVTLAAPAASAAGHHEPAAPESFDEVYKGRRIQGRPARGAAHHHEHGGGYEVFVDGVQLHVMRNADGSWISVVSHFDPVPTPRAAARAAVDELQGAPLLPFPANLEHHHHHH | soluble
2 | MGSDKIHHHHHHMMSDEKNLGVSQKLVSPSRSTSSCSSKQGSRQDSWEVVEGLRGEMNYTQEPPVQKGFLLKKRKWPLKGWHKRFFYLDKGILKYAKSQTDIEREKLHGCIDVGLSVMSVKKSSKCIDLDTEEHIYHLKVKSEEVFDEWVSKLRHHRMYRQNEIAMFPHEVNHFFSGSTITDSSSGVFDSISSRKRSSISKQNLFQTGSNVSFSCGGETRVPLWLQSSEDMEKCSKDLAHCHAYLVEMSQLLQSMDVLHRTYSAPAINAIQGGSFESPKKEKRSHRRWRSRAIGKDAKGTLQVPKPFSGPVRLHSSNPNLSTLDFGEEKNYSDGSETSSEFSKMQEDLCHIAHKVYFTLRSAFNIMSAEREKLKQLMEQDASSSPSAQVIGLKNALSSALAQNTDLKERLRRIHAESLLLDSPAVAKSGDNLAEENSRDENRALVHQLSNESRLSITDSLSEFFDAQEVLLSPSSSENEISDDDSYVSDISDNLSLDNLSNDLDNERQTLGPVLDSGREAKSRRRTCLPAPCPSSSNISLWNILRNNIGKDLSKVAMPVELNEPLNTLQRLCEELEYSELLDKAAQIPSPLERMVYVAAFAISAYASSYYRAGSKPFNPVLGETYECIREDKGFQFFSEQVSHHPPISACHAESRNFVFWQDVRWKNKFWGKSMEIVPIGTTHVTLPVFGDHFEWNKVTSCIHNILSGQRWIEHYGEIVIKNLHDDSCYCKVNFIKAKYWSTNAHEIEGTVFDRSGKAVHRLFGKWHESIYCGGGSSSACVWRANPMPKGYEQYYSFTQFALELNEMDPSSKSLLPPTDTRFRPDQRFLEEGNLEEAEIQKQRIEQLQRERRRVLEENHVEHQPRFFRKSDDDSWVSNGTYLELRKDLGFSKLDHPVLW | not soluble
3 | MSLEASVEGLDGPAATNVVNFLEPLDTRNISEARLDSDIRERTQRALRAFGYYSPQIETSYPDGMFAGDVVIAIDPGPRTHITQLDLGVDGAAGDDPAFRKALASIPLEEGDPLRHDRYDSAKTRLSTLALERGYFDAGFAQQRMEVRPWEASARLFLRMRSGPRYRFGDIRFAGSQIEEARLRRMLPFTKGDPYLAGQLAEYNQRLGQTNWFRGIAVRPRIGDERNVTRGGQWWQEATGRTPPLSSGAGLAAVRRLHGLQSTDVPVDVDLVPADRHKFETGIGYATDVGPRVQFSWEMPWLNDRGHSLSNSLYLSGPEQRFDGEYVMPLANPLRDSYRLSYGLRSLDNEDTQSLESSVELARRWEFDNDWVQELYFRTTYEDFTQADQDEQVLLLYPGISWTRTRTRQPNFPRWGDRQRLALEVSDPAWGSDARFLRARFDSQWIRTLGSDNRFVGRIGGGATATDTFDKIPPSLRFFAGGDQSVRGYSYESLSPENDDGELLGGQHMLTASAEYQRRVTGNWWGATFVDTGNAFNAWWPEELKTGAGVGVRWISPVGPVRFDIAHPFDNEEDAWRLHFAIGPEEGHHHHHH | not soluble
4 | CTRAVYLGPDRMVVTGRTMDWKEDIMSNIYVFPRGMQRAGHNKEKTVNWTSKYGSVIATGYDIGTCDGMNEKGLVASLLFLPESVYSLPGDTRPAMGISIWTQYVLDNFATVREAVDEMKKETFRIDAPRMPNGGPESTLHMAITDETGNTAVIEYLDGKLSIHEGKEYQVMTNSPRYELQLAVNDYWKEVGGLQMLPGTNRSSDRFVRASFYIHAIPQTADAKIAVPSVLSVMRNVSVPFGINTPEKPHISSTRWRSVSDQKNKVYYFESTLTPNLFWLDLKKIDFSPKAGVKKLSLTKGEIY | not soluble
5 | MTRVIIDGDACPVVDSVIELTTGTGIFVTILRSFSHYSNKVLPNHVETIYIDDGPDAVDYKIVKLATPEDIVITQDYGLASLLLSKVKIVMHHKGHLYRSSNIDMLLQQRYNNAQIRKQGGRHKGPPPFSKEDKKQFERAFKSVIKQLLEHHHHHH | not soluble
6 | GPGSMSKGAVVLVLDITLPRAAALVEACNLCDRILTDKMIYAPSDEVSVILAGTEKSRSALYEQSVQARYNHITVAAELGPATSLTLAPIAATRAGVAVLPEGETVRPSIAEAYDFIDALQVAVAVLQARTSQKKYNRCIYFLTDARHEVRHKEDLLSLIDILQRDQVALVVIGFDFQALPAPADSQGEFNESTTVVPSAWAALDRKAQNERILAALCTELGPPSTLVSPAEALASLSLLRCRRIRQQPVLKVALRMGDVRLATQLFTLTQEERLPSLRRSTQDGVDVAQTIEYVVLGGVEERPCALAKEERVEAFFLGVDRISCSEADREAMRVKGPRALEAIGFVGEAEVEPYLLMGGTRALLPLAGDHAGQRGFNALVDAMASSRKAMLVRLVRTADAAPSLCVCFARTAGSSAAQRHLVLAPLPFAEDVRALRFSEYPELQFSAAEEQLMDELIDGLSVDDSVLAPHDTFNPVLQQYYATLRAKLSAMNVSAEKGNTKATSPEAAVPQLLPTLRGTSTDFFAEGSEVYEVVSAHRSALVSCATAFPYEDEADALLSGSRDAGRKGKPWYQDVAMTPSLIGPQAGSPPPAAQGSDGAPSTIAPAIAGGARCGGEADEASAGSHTASDANSISTVPHDTISGGVSFAITSVDPVGSFSMIVHHPAVTEAQLNKAKDDLSDVIWELLRSSIKDAIYRKCMACIMALRQFCVTQDDAAYYNDFLLKLEVVARQCSRDADFWVPYVVERKDGANVWPITAQECKSAALPDDTAAKAFLQKDRFDPAIAFDDTADDDDWLAEIQ | not soluble
7 | MGSDKIHHHHHHMAKNKALFECQACGNQQSKWLGKCPDCGAWDSFVELKAEQIKVLKELAQVSMKTSEAVCIEDVELEHFTRYSTDDNELDLVLGGGLVEGSLVLIGGSPGVGKSTLLLKIASNLAKQGKKVLYVSGEESKAQIKLRADRLEANTPNLFLLTELCLENILEELHKKDYSILIVDSIQTLYSNKITSAAGSITQVREITFELMRVSKAYNISTFIIGHITKEGAIAGPRVLEHMVDVVLYFEGDATKEIRLLRGFKNRFGGTNEVGIFEMTAKGLISAKDLANRFFTRGKAISGSALGVVMEGSRALVLEVQALVCESSYPKRSATGYEKNRLDMLLALLERKLEIPLGHYDVFVNISGGVKVSETAADLAVVAAIISSFKNRPLSKDSIFIGELSLNGEIREVFSLDTRLKEAKMQKFKNAIVPSKPLEDIGLKCFVAKELSQVLEWM | not soluble
8 | MADESYDALSRGNKSNLRNEVVDMKKKPFSILFMGIEDYATKGQKGRSDSLIVVTLDPKNKTMKMLSIPRDTRVQLAGDTTGSKTKINAAYSKGGKDETVETVENFLQIPIDKYVTVDFDGFKDVINEVGGIDVDVPFDFDEKSDVDESKRIYFKKGEMHLNGEEALAYARMRKQDKRGDFGRNDRQKQILNALIDRMSSASNIAKIDKIAEKASENVETNIRITEGLALQQIYSGFTSKKIDTLSITGSDLYLGPNNTYYFEPDATNLEKVRKTLQEHLDYTPLEHHHHHH | soluble
9 | MSGTEEAILGGRDSHPAAGGGSVLCFGQCQYTAEEYQAIQKALRQRLGPEYISSRMAGGGQKVCYIEGHRVINLANEMFGYNGWAHSITQQNVDFVDLNNGKFYVGVCAFVRVQLKDGSYHEDVGYGVSEGLKSKALSLEKARKEAVTDGLKRALRSFGNALGNCILDKDYLRSLNKLPRQLPLEVDLTKAKRQDLEPSVEEARYNSCRPNM | soluble
10 | MGSDKIHHHHHHMKDLLNAFENKAPEIVFEWHDAETDATGWAVINSLRGGAAGGGTRMRKGLDKHEVVSLAKTMEIKFAVSGPHIGGAKSGINFDPADPRKNDVLNRWYKAVMPLLKSYYGTGGDLNVCEIKDVIPNTEEYGLWHPQEGIVNGHFHPSEELRIQKICQLRGGVTMPVVNPAYTPDPAKKYLVADLITGFGVSESVRHYYEIKGDSVAGKRVIVQGWGNVGGTAAYYLAANGAKVVGIIDRAAGLVSTEGLTFEQVKELLAKRVGNTLTGDNLLSAEDTQKLVWSVGADVFLPCAASRLVTREQVATLKDNGLGLIACGANVPFRDDNIFYGPTAEYADGVVDVIPDFIANCGMARAFNYLMSSKVDLDESAIFQDVSEVIRNALTESCAAATGKNHLLAASLKTVLHKLMH | not soluble
11 | MGSDKIHHHHHHMSSSSLSSTSTRVTYAVGDFVYFDDTSATDAPYQIRKIEELVKTEKGGVDARCVVYLRRRDIPQHLLKIADQAQRRFDNYYEVDKKKPENFTTKGFIVVNGASEAAPEAAPEATEASAETSETKVKEDTDDVAEKMEEDEECPAPVGQGRTSSTEEPSASDAPAATAKDKKEEKEAKENAKNLKETAEAEATKLIDWGDGGLPLGVDKLTPDQRLKLRQHEIFMTRQSEILPAAAIRGKCRVVLLGDGEEAQNYLPLDDTFYHSLVYDPNAQTLLADK | not soluble
12 | MGSSHHHHHHSSGLVPRGSHMATADPYDALRRRWLGITLGTGYDPAAEPYASRLAETGERAREHRATMAPTPTSLWPGHPFDPPAGITFAYGRLWTMTEAYVQEGTGATGDPALLADILRGLDHLSATVYHPATTRYGNWWEWQIGSPRLLMDITAALYDHLGADRVAAACAAVDHFVPDAMLGAYTGTSTGANRVDLCRSVALRGVLGRAPAKIALARDALSPVFPYVTKGDGLYADGSFVQHTWVAYSGTYGQVMLDGLGRLFTLLAGSEWEVTDPGRQLVLDSVEHAYAPLIHDGLVMDTVNGRAISRGYLKSDDLHVMRSDHFHGQQLIAAMAVLAGGASNAERERWHARIKGWIERDTVTPVLTAPQFPVADLTRLHAIADAPGEAAPEPVGHHLFAAMDRAVHRRPAFTAGLAMASDRIAHYECGNGENPRGWHTGAGMLTWWANGTRADQYTDWFWPTVDWYRLPGTTVSTKRLADRAGGEWGAPKPDVRWVGGATDGEYAAVGQHLKGLGSTLEARKSWFFLDDAVVCLGAGITCADGVPVETVVDNRNLGEGGTQALVRGRHWAHLEGHGGWIVPGGALRTLREDRTGAWSDINTTSTTERRTRRWQTLWLDHGTDPAGADYVYTVMPGASRAALARRAADRHWLTVLANDDRRQAVSVPSLGLTAANFWQAGTAGPLTTTAGASVLVRRRGRTATLRVSEPPRTGEALEIVWDHPVGAVLRADETVEILATGRRLHLRVTPGVVCTTHECEVTLS | soluble
13 | MAAAKRKLVFDSPNESSVNFETSPNFPKEWKIDGMDIENRIRNFRDELQAQGLCPVGSAGIDPKSKFRTEYRRIVNANTILTDVLRLQQKEGEWLKNASGLLEYDIQSLHARRDHLDNAVEQLKSQLSRLDSSVAILKSQQMAVKSVLELREDEYLADDADSNLPDEFLKFSKISKLCAASLQSYENVKKRNEEMQKELIAERNRQRKLHDATMKMMEEKERVRVEQLEDLFKDFSLEQLTRLRDRIRQAQK | not soluble
14 | MGSDKIHHHHHHMMDYFSMTSHQDTKPSAQTSQWPVPTDSVRYVIPEPIVRQLAHHPLTRELYPLAFGHYRRAAGHHMHREHHRDNLLIYCTDGKAFLNVAGEPYTVTAGDLLLLPAGVSHRYTADPDNPWTIHWVHYTGPLAEDFGQYMGFDDSTRIRHLGRQPRLLVDFNGLLSVRQTGFRARGLIHASNRLRQLLAAVPINADETSQARQAELDSLHSFMREHLEERLTLNQLAELSGLSPAHFATRYREQTGTSPIQHFLHLKVERACELLDTTSQSFADISRQLGYDDAYYFSRLFKKVMGKSPTDYRHTARH | not soluble
15 | MALNVIKISRVSLVTNSVEPLVLPLTFFDLLWLKLNPIERVTFYKLTESSRDSFFSSILPKLEQSLSLVLSHFLPLSGHLKWNPQDPKPHIVIFPKDTVSLTVVESEADFSYISSKELRLETELRPLVPELQVSSDSASLLSLQITLFPNQGFSIGTTVHHVVMDGKTASKFHKSWAHICKHGTTPQDFDLPTVLDRTVINVPAGLEQKIFQLSSYISEEKDYARTLTLPPAKEIDNDVVRVTLELTEVDIEKLKERAKNESTRSDLHLSTFVVSYAYVLTCMVKSCGGDANRPVRFMYAADFRNRLDPPVPLTYFGNCVLPIDFNGYKATTFLGKDGYVNGVEILSDSVRGLGSRNIESIWEVYEDGTKNMKLDTQNVTVTGSNQFGIYGSDFGWGRPVKTDVMSLYKNNEFSMSARRDEIGGLEIGISLKKCEMNVFLSLFTSDFDIYK | soluble
